According to patent publication US20120014998A1:

Ala-Cpn10-cHis, sequence (P61604 other isoform, or with tags, fused parts or gaps limits assumed): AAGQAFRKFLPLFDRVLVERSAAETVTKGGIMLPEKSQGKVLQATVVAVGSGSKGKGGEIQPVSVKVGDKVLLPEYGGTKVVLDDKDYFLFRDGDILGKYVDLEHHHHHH
X-Cpn10 (i.e. non-acetylated), sequence (P61604 2-102 limits assumed): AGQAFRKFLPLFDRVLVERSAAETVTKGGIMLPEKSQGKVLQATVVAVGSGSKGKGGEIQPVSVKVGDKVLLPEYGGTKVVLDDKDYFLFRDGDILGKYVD
Ala-Cpn10 (Wild type Cpn10), sequence (P61604 other isoform, or with tags, fused parts or gaps limits assumed): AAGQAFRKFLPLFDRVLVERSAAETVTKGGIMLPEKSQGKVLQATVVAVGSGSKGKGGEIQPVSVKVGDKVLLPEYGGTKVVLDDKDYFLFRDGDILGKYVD
Gly-Cpn10, sequence (P61604 other isoform, or with tags, fused parts or gaps limits assumed): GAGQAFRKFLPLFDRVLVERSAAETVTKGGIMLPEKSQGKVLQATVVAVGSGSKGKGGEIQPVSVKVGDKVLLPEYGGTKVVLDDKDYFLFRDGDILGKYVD

Each substance was assayed against GroEL (E. coli Cpn60) (E. coli) (UniProt P0A6F5) (assay: cell-based or functional assay).
GroEL (E. coli Cpn60) (E. coli), sequence (P0A6F5 2-548 limits assumed): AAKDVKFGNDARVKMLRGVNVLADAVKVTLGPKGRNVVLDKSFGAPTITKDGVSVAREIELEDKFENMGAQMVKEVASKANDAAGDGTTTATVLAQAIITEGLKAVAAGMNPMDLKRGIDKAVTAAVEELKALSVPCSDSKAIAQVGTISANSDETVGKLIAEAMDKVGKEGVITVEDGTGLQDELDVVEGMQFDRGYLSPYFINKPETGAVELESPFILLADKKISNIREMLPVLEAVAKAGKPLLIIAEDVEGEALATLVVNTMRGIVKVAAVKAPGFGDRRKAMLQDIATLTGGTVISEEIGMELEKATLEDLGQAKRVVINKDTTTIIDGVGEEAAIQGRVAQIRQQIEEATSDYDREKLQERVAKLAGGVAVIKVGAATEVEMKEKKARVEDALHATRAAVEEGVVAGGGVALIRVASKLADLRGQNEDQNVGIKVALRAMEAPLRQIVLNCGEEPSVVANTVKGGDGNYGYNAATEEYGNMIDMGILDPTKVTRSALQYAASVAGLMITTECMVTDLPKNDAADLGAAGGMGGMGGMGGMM
Gly-Cpn10 (from UniProt P61604 2-102) gave a Refolding activity (% of Ala-Cpn10) (% of Ala-Cpn10) of 107.
For “Ala-Cpn10-cHis (from UniProt P61604 2-102)”, the Refolding activity (% of Ala-Cpn10) (% of Ala-Cpn10) was 40.
“Cpn10-NtermES (from UniProt P61604 11-102)” gave a Refolding activity (% of Ala-Cpn10) (% of Ala-Cpn10) of 12.
“Ala-Cpn10 (Wild type Cpn10) (from UniProt P61604 2-102)” showed a Refolding activity (% of Ala-Cpn10) (% of Ala-Cpn10) of 100.
Substance “X-Cpn10 (i.e. non-acetylated) (from UniProt P61604 2-102)” has a Refolding activity (% of Ala-Cpn10) (% of Ala-Cpn10) of 105.
